The values that follow come from the supplement of paper PMC10598134.

± gives the standard deviation.

The data set is described as follows: collision cross section of modified peptide (TIMS, N2, iRT-aligned); higher = larger / more extended gas-phase ion. The method, boiled down:
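Collision cross section was derived from the Mason-Schamp equation. Each value averages 1–3 technical replicates of the most abundant feature per charge state, measured on a timsTOF Pro/HT in dda-PASEF mode (nitrogen, ~2.4 mbar) after a 120-min nanoflow C18 gradient at 60 °C. Synthetic peptide pools (~100 fmol/µL in 2% acetonitrile/0.1% formic acid, iRT standard spiked 1:40) were identified with MaxQuant, and 1/K0 was calibrated with three reference ions and aligned run-wise to the median iRT peptide deviation.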

[1] abbreviates: charge state: 2, modification: Crotonyl.
[2] abbreviates: charge state: 3, modification: Crotonyl.
Setting [3] is: charge state: 3, modification: Methyl (R).
The mark [4] stands for this setting: charge state: 2, modification: Propionyl.
The mark [5] stands for this setting: charge state: 3, modification: Propionyl.
[6] abbreviates: charge state: 2, modification: Succinyl.
[7] abbreviates: charge state: 3, modification: Succinyl.
Setting [8] is: charge state: 2, modification: Dimethyl (K).
Setting [9] is: charge state: 3, modification: Dimethyl (K).
[10] abbreviates: charge state: 2, modification: Acetyl (K).
Where [11] appears, read: charge state: 2, modification: Biotin.
Setting [12] is: charge state: 3, modification: Biotin.
Setting [13] is: charge state: 2, modification: GlyGly (K).
Where [14] appears, read: charge state: 3, modification: GlyGly (K).
The mark [15] stands for this setting: charge state: 2, modification: Butyryl.
[16] abbreviates: charge state: 2, modification: Malonyl.
[17] abbreviates: charge state: 2, modification: Glutarylation.
Where [18] appears, read: charge state: 3, modification: Trimethyl (K).
[19] abbreviates: charge state: 2, modification: Nitro (Y).
Where [20] appears, read: charge state: 2, modification: HexNAc (ST).
Setting [21] is: charge state: 2, modification: Methyl (K).
Where [22] appears, read: charge state: 3, modification: Methyl (K).
Setting [23] is: charge state: 2, modification: hydroxyisobutyryl.
[24] abbreviates: charge state: 3, modification: hydroxyisobutyryl.
Where [25] appears, read: charge state: 3, modification: Butyryl.

As to “IVFSGNLFQHQEDSKK [_IVFSGNLFQHQEDSK(Crotonyl)K_]”, the collision cross section is, setting by setting: under setting [1], 503.03 ± 1.1 Å²; under setting [2], 539.53 ± 1.2 Å².

Sequence “RFGGPVHHQAQR [_R(Methyl (R))FGGPVHHQAQR_]” displayed a collision cross section under setting [3] of 496.52 ± 2.2 Å². As for “LQEKVESAQSEQK [_LQEK(Propionyl)VESAQSEQK_]”, the collision cross section reads like this: under setting [4], 417.86 ± 1.3 Å²; under setting [5], 502.35 ± 1.5 Å².

“LLIVSTTPYSEKDTK [_LLIVSTTPYSEK(Succinyl)DTK_]”: the collision cross section reads like this: under setting [6], 458.63 ± 1.1 Å²; under setting [7], 480.04 ± 2.5 Å². Sequence “VDVEVPDVSLEGPEGKLK [_VDVEVPDVSLEGPEGK(Dimethyl (K))LK_]” had a collision cross section under setting [8] of 459.72 ± 1.8 Å² and a collision cross section under setting [9] of 548.43 ± 0.78 Å². Under setting [10], “SDSGKPYYYNSQTK [_SDSGK(Acetyl (K))PYYYNSQTK_]” showed a collision cross section of 419.63 ± 2 Å². For the sequence LLFSNTAAQKLR [_LLFSNTAAQK(Biotin)LR_], the collision cross section runs as follows: under setting [11], 418.21 ± 1.1 Å²; under setting [12], 503.51 Å². On to “VGLQVVAVKAPGFGDNR [_VGLQVVAVK(Succinyl)APGFGDNR_]”, for which the collision cross section came to 449.31 ± 0.96 Å² under setting [6] and 542.29 ± 1.1 Å² under setting [7].

Sequence “IHNAENIQPGEQKYEYK [_IHNAENIQPGEQK(Succinyl)YEYK_]” showed a collision cross section under setting [7] of 525.87 ± 2 Å².

As for “DESFLGKLGGTLAR [_DESFLGK(GlyGly (K))LGGTLAR_]”, the collision cross section is on record as 437.68 ± 0.96 Å² under setting [13] and 486.51 ± 1.1 Å² under setting [14].

For the sequence SLKLNTAEDAK [_SLK(Crotonyl)LNTAEDAK_], under setting [1], the collision cross section is 378.17 ± 0.26 Å². “DLGKFQVATDALK [_DLGK(Butyryl)FQVATDALK_]” came in with a collision cross section under setting [15] of 411.4 ± 0.85 Å². Regarding “YSRGAGLGFSTAPNK [_YSR(Methyl (R))GAGLGFSTAPNK_]”, under setting [3], the collision cross section was found to be 478.19 ± 2.5 Å². Sequence “LTSLNVKYNNDK [_LTSLNVK(Acetyl (K))YNNDK_]” came in with a collision cross section under setting [10] of 407.77 ± 1 Å².

Consider “DASTLQSQKAEGTGDAK [_DASTLQSQK(Malonyl)AEGTGDAK_]”, for which the collision cross section by setting is: under setting [16], 438.73 ± 1.8 Å²; (charge state: 3, modification: Malonyl) 490.61 ± 1.6 Å². “IHVQSSSDSSDEPAEKR [_IHVQSSSDSSDEPAEK(GlyGly (K))R_]”: the collision cross section by setting is: under setting [13], 469.51 Å²; under setting [14], 539.73 ± 0.58 Å². The sequence “VNALKNLQVK [_VNALK(Gluratylation)NLQVK_]” had a collision cross section under setting [17] of 376.79 ± 0.1 Å².

In the case of “DAIHFYNKSLAEHR [_DAIHFYNK(Trimethyl (K))SLAEHR_]”, under setting [18], the collision cross section is given as 498.17 ± 1.1 Å².

On to “IQTKAGEATVK [_IQTK(Gluratylation)AGEATVK_]”, for which, under setting [17], the collision cross section worked out at 370.55 ± 0.62 Å². On to LDYSDFQIVK [_LDY(Nitro (Y))SDFQIVK_], for which, under setting [19], the collision cross section is listed as 369.5 ± 0.55 Å². Take GSLEKGSPEDK [_GSLEK(Propionyl)GSPEDK_]: the collision cross section under setting [4] was 368.76 ± 0.94 Å².

For “LEEVTGKLQVAR [_LEEVTGK(Trimethyl (K))LQVAR_]”, the collision cross section is recorded as 402.01 ± 1.1 Å² (charge state: 2, modification: Trimethyl (K)) and 471.9 ± 1.5 Å² under setting [18].

In turn, “TQAYQDQKPGTSGLR [_TQAYQDQK(Dimethyl (K))PGTSGLR_]” had a collision cross section under setting [9] of 464.17 ± 1.6 Å². Sequence “VMVAPISGSVTTGTK [_VMVAPIS(HexNAc (ST))GSVTTGTK_]” gave a collision cross section under setting [20] of 423.51 ± 0.62 Å².

For the sequence PAVTAAPK [_PAVT(HexNAc (ST))AAPK_], under setting [20], the collision cross section came to 333.39 ± 1 Å². Regarding “IVSGKDYNVTANSK [_IVSGK(Propionyl)DYNVTANSK_]”, the collision cross section under setting [4] is recorded as 411.4 ± 0.64 Å². On to ITGKNQVTATK [_ITGK(Methyl (K))NQVTATK_], for which the collision cross section reads like this: under setting [21], 372.71 ± 1.1 Å²; under setting [22], 447.83 ± 5.1 Å². The matching figures for “TVSKVDDFLANEAK [_TVSK(Methyl (K))VDDFLANEAK_]”: 413.26 ± 1.6 Å² and 471.08 ± 3.6 Å². For the sequence “GEAGPTGPQGEPGVRGIR [_GEAGPTGPQGEP(Hydroxyproline)GVRGIR_]”, for the setting “charge state: 3, modification: Hydroxyproline”, the collision cross section is on record as 499.21 ± 1.2 Å². In the case of “DVNAAIAAIKTK [_DVNAAIAAIK(Gluratylation)TK_]”, the collision cross section is 410.15 ± 0.99 Å² under setting [17] and 471.67 ± 2.5 Å² (charge state: 3, modification: Glutarylation).

In the case of LDEKENLSAK [_LDEK(Methyl (K))ENLSAK_], the collision cross section under setting [21] worked out at 366.29 ± 0.55 Å².

LEQVEKELLR [_LEQVEK(Methyl (K))ELLR_] gave a collision cross section under setting [21] of 386.67 ± 0.96 Å² and a collision cross section under setting [22] of 448.53 ± 4.9 Å².

For VELCSFSGYK [_VELCSFSGY(Phospho (Y))K_], the collision cross section (charge state: 2, modification: Phospho (Y)) turned out to be 372.99 ± 0.08 Å². Under setting [16], SLKLNTAEDAK [_SLK(Malonyl)LNTAEDAK_] showed a collision cross section of 374.06 ± 0.0012 Å².

Consider “DAIHFYNKSLAEHR [_DAIHFYNK(Succinyl)SLAEHR_]”, for which the collision cross section is given as 453.03 Å² under setting [6] and 520.54 ± 0.35 Å² under setting [7].

On to “DLSTVEALQNLKNLK [_DLSTVEALQNLK(Crotonyl)NLK_]”, for which, under setting [1], the collision cross section was found to be 484.33 ± 1.1 Å².

The sequence “GSGLGARGSSYGVTSTESYK [_GSGLGAR(Methyl (R))GSSYGVTSTESYK_]” had a collision cross section under setting [3] of 519.94 ± 0.91 Å². As to “VPTTEKPTVTVNFR [_VPTTEK(Formyl)PTVTVNFR_]”, the collision cross section by setting is: (charge state: 2, modification: Formyl) 425.05 ± 5 Å²; (charge state: 3, modification: Formyl) 502.93 ± 1.3 Å². “IVSGKDYNVTANSK [_IVSGK(Biotin)DYNVTANSK_]”: the collision cross section reads like this: under setting [11], 432.72 ± 2.7 Å²; under setting [12], 508.73 Å². On to “VNIGQGSHPQKVK [_VNIGQGSHPQK(Malonyl)VK_]”, for which the collision cross section under setting [16] worked out at 424.04 ± 0.57 Å².

In turn, SLKLNTAEDAK [_SLK(Propionyl)LNTAEDAK_] returned a collision cross section under setting [4] of 376 ± 0.94 Å². “STGLELETPSLVPVKK [_STGLELETPSLVPVK(Succinyl)K_]”: the collision cross section was found to be 449.72 ± 9.5 Å² under setting [6] and 499.21 ± 23 Å² under setting [7]. SEASSEFAKK [_SEASSEFAK(Propionyl)K_] displayed a collision cross section under setting [4] of 351.7 ± 3.7 Å².

With “LTEKELAEAASK [_LTEK(hydroxyisobutyryl)ELAEAASK_]”, the collision cross section by setting is: under setting [23], 392.48 ± 2 Å²; under setting [24], 455.87 ± 2.2 Å².

For the sequence YTCSFCGK [_Y(Nitro (Y))TCSFCGK_], under setting [19], the collision cross section came out at 334.4 ± 0.71 Å².

The sequence “SDDESSQKDIK [_SDDESSQK(Dimethyl (K))DIK_]” yielded a collision cross section under setting [8] of 372.77 ± 1.2 Å² and a collision cross section under setting [9] of 434.93 ± 2.1 Å². As for “ATVASSTQKFQDLGVK [_ATVASSTQK(Succinyl)FQDLGVK_]”, the collision cross section by setting is: under setting [6], 444.76 ± 1.1 Å²; under setting [7], 493.48 ± 0.68 Å². As for “GGFQNRGGGSGGGGNYR [_GGFQNR(Methyl (R))GGGSGGGGNYR_]”, the collision cross section under setting [3] is listed as 475.78 ± 6.5 Å². Turning to “DTPTSAGPNSFNKGK [_DTPTSAGPNSFNK(Crotonyl)GK_]”, the collision cross section is, setting by setting: under setting [1], 412.68 ± 0.55 Å²; under setting [2], 462.19 Å². As for “DLSTVEALQNLKNLK [_DLSTVEALQNLK(Butyryl)NLK_]”, the collision cross section by setting is: under setting [15], 484.29 ± 0.35 Å²; under setting [25], 550.2 Å².

Consider LLEEEDSKLK [_LLEEEDSK(Succinyl)LK_], for which the collision cross section is on record as 381.87 ± 0.24 Å² under setting [6] and 464.35 Å² under setting [7]. On to YLHDESGLNR [_Y(Nitro (Y))LHDESGLNR_], for which the collision cross section was determined as 366.66 ± 0.46 Å² under setting [19] and 429.41 ± 1.1 Å² (charge state: 3, modification: Nitro (Y)). In the case of “SLKLNTAEDAK [_SLK(hydroxyisobutyryl)LNTAEDAK_]”, the collision cross section under setting [23] is recorded as 378.64 ± 0.28 Å². As for KFGVLSDNFK [_K(Methyl (K))FGVLSDNFK_], the collision cross section reads like this: under setting [21], 372.37 ± 0.47 Å²; under setting [22], 448.39 ± 4.9 Å².

On to “FSAYIKNSNPALNDNLEK [_FSAYIK(GlyGly (K))NSNPALNDNLEK_]”, for which the collision cross section runs as follows: under setting [13], 506.19 ± 1.5 Å²; under setting [14], 530.18 ± 11 Å². On to “TFGKAAGPSLSHTSGGTQSK [_TFGK(hydroxyisobutyryl)AAGPSLSHTSGGTQSK_]”, for which the collision cross section turned out to be 498.68 ± 0.33 Å² under setting [23] and 512.39 ± 2.8 Å² under setting [24]. Turning to “ASDTSSETVFGKR [_ASDTSSETVFGK(Propionyl)R_]”, the collision cross section runs as follows: under setting [4], 398.28 ± 0.65 Å²; under setting [5], 481.99 Å². In the case of GPPGAKGNK [_GPP(Hydroxyproline)GAKGNK_], the collision cross section (charge state: 2, modification: Hydroxyproline) is 311.98 ± 0.24 Å². As to “VGIDTPDIDIHGPEGKLK [_VGIDTPDIDIHGPEGK(Butyryl)LK_]”, the collision cross section under setting [15] was 496.6 ± 1 Å² and the collision cross section under setting [25] is given as 542.04 ± 1.1 Å².
